This assay addresses T1, Cynomolgus CD3εδ Fc heterodimer (Cy CD3ε Fc / CD3δ Fc-HIS) (cynomolgus, UniProt Q95LI8 22-100).
T1 chain 1: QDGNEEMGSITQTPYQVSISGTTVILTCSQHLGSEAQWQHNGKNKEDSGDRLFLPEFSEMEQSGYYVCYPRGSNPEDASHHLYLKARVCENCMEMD
T1 chain 2: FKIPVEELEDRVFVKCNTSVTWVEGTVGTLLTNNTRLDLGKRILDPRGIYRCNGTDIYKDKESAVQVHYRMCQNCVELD
The experiment in a line: BLI (Octet), IgG on AHC sensor, pH 6.0.

Consider 20 molecules from patent US20220380463A1 (Adimab, published 2022).

B1: SAD10319_P03_H08 (ADI-57328) (antibody, V domains shown)
VH: QVQLVQSGAEVKKPGASVKVSCKASGYTFKSYDMHWVRQAPGQRPEWMGWINAGTGNTVYSQKFQGRVTITRDTSASTAYMELSSLRSEDTAVYYCARDAYHRYFYDVWGQGTLVTVSS
VL: DIVMTQSPDSLAVSLGERATINCKSSQSLLNARTGKNYLAWYQQKPGQPPKLLIYWASTRESGVPDRFSGSGSGTDFTLTISSLQAEDVAVYYCKQSYSRRTFGGGTKVEIK
notes: IgG; also called Ab23
With B1, the koff was determined as 0.00348 s⁻¹.

B2: SAD10320_P01_F01 (ADI-57345) (antibody, V domains shown)
VH: QVQLVQSGAEVKKPGASVKVSCKASGFNIKDYYMHWVRQAPGQRPAWMGWIDLENANTIYDAKFQGRVTITRDTSASTAYMELSSLRSEDTAVYYCARDASHRYFYDVWGQGTLVTVSS
VL: DIVMTQSPDSLAVSLGERATINCKSSQSLLNARTGKNYLAWYQQKPGQPPKLLIYWASTRESGVPDRFSGSGSGTDFTLTISSLQAEDVAVYYCGHSYSRRTFGGGTKVEIK
notes: IgG; also called Ab50
As to B2, the koff amounted to 0.00642 s⁻¹. Compared with the last molecule, the koff is about 1.8-fold higher.

B3: SAD10319_P03_G09 (ADI-57300) (antibody, V domains shown)
VH: QVQLVQSGAEVKKPGASVKVSCKASGYTFTSYDMHWVRQAPGQRLEWMGWIDPHTGATKYSQKFQGRVTITRDTSASTAYMELSSLRSEDTAVYYCARDAYGRYFYDHWGQGTLVTVSS
VL: DIVMTQSPDSLAVSLGERATINCKSSQSLLNARTGKNYLAWYQQKPGQPPKLLIYWASTRESGVPDRFSGSGSGTDFTLTISSLQAEDVAVYYCKQSYSRRTFGGGTKVEIK
notes: IgG; ADI-57300 is also printed for Ab234; also called Ab28
B3: the koff was 0.0219 s⁻¹.

B4: SAD10320_P01_C02 (ADI-57348) (antibody, V domains shown)
VH: QVQLVQSGAEVKKPGASVKVSCKASGFNIKDYYMHWVRQAPGQRLDWMGWIDLENANTIYDAKFQGRVTITRDTSASTAYMELSSLRSEDTAVYYCARDAGHRYFYDVWGQGTLVTVSS
VL: DIVMTQSPDSLAVSLGERATINCKSSQSLLNARPGKNYLAWYQQKPGQPPKLLIYWASTRESGVPDRFSGSGSGTDFTLTISSLQAEDVAVYYCGHSYSRRTFGGGTKVEIK
notes: IgG; also called Ab54
As for B4, the koff was found to be 0.00277 s⁻¹.

B5: SAD10319_P04_D11 (ADI-57337) (antibody, V domains shown)
VH: QVQLVQSGAEVKKPGASVKVSCKASGYTFNSYRMHWVRQAPGQRLEWMGSIDAGTGNTKYSQKFQGRVTITRDTSASTAYMELSSLRSEDTAVYYCARDAYGRYFYDHWGQGTLVTVSS
VL: DIVMTQSPDSLAVSLGERATINCKSSQSLLNARTGKNYLAWYQQKPGQPPKLLIYWASTRESGVPDRFSGSGSGTDFTLTISSLQAEDVAVYYCKQSYSRRTFGGGTKVEIK
notes: IgG; also called Ab35
B5 gave a koff of 0.00339 s⁻¹.

B6: SAD10319_P04_C10 (ADI-57333) (antibody, V domains shown)
VH: QVQLVQSGAEVKKPGASVKVSCKASGYTFTDYSMHWVRQAPGQRLEWMGSINAGTGITKYSQKFQGRVTITRDTSASTAYMELSSLRSEDTAVYYCARDAHGRYFYDVWGQGTLVTVSS
VL: DIVMTQSPDSLAVSLGERATINCKSSQSLLNARTGKNYLAWYQQKPGQPPKLLIYWASTRESGVPDRFSGSGSGTDFTLTISSLQAEDVAVYYCKQSYSRRTFGGGTKVEIK
notes: IgG; also called Ab31
B6 showed a koff of 0.00124 s⁻¹.

B7: SAD10319_P04_H12 (ADI-57344) (antibody, V domains shown)
VH: QVQLVQSGAEVKKPGASVKVSCKASGYTFTSDHMHWVRQAPGQRLEWMGSINAGTGATKYSQKFQGRVTITRDTSASTAYMELSSLRSEDTAVYYCARDAYGHYFYDHWGQGTLVTVSS
VL: DIVMTQSPDSLAVSLGERATINCKSSQSLLNARTGKNYLAWYQQKPGQPPKLLIYWASTRESGVPDRFSGSGSGTDFTLTISSLQAEDVAVYYCKQSYSRRTFGGGTKVEIK
notes: IgG; also called Ab45
Molecule B7 displayed a koff of 0.0047 s⁻¹.

B8: SAD10319_P04_A10 (ADI-57331) (antibody, V domains shown)
VH: QVQLVQSGAEVKKPGASVKVSCKASGYTFTSDAMHWVRQAPGQRLAWMGYINAGTGTTKYSQKFQGRVTITRDTSASTAYMELSSLRSEDTAVYYCAHDAYGHYFYDVWGQGTLVTVSS
VL: DIVMTQSPDSLAVSLGERATINCKSSQSLLNARTGKNYLAWYQQKPGQPPKLLIYWASTRESGVPDRFSGSGSGTDFTLTISSLQAEDVAVYYCKQSYSRRTFGGGTKVEIK
notes: IgG; also called Ab29
As to B8, the koff was 0.0262 s⁻¹.

B9: SAD10319_P04_G11 (ADI-48641) (antibody, V domains shown)
VH: QVQLVQSGAEVKKPGASVKVYCKASGYTFTTYEMHWVRQAPGQRLEWMGSINAGDANTKYSQKFQGRVTITRDTSASTAYMELSSLRSEDTAVYYCARDAYHHYFYDVWGQGTLVTVSS
VL: DIVMTQSPDSLAVSLGERATINCKSSQSLLNARTGKNYLAWYQQKPGQPPKLLIYWASTRESGVPDRFSGSGSGTDFTLTISSLQAEDVAVYYCKQSYSRRTFGGGTKVEIK
notes: IgG; also called Ab39
Molecule B9 yielded a koff of 0.00317 s⁻¹.

B10: SAD10319_P03_F09 (ADI-57329) (antibody, V domains shown)
VH: QVQLVQSGAEVKKPGASVKVSCKASGYTFPSYPMHWVRQAPGQRLDWMGWINPDTGATVYSQKFQGRVTITRDTSASTAYMELSSLRSEDTAVYYCARDAYHHYFYDVWGQGTLVTVSS
VL: DIVMTQSPDSLAVSLGERATINCKSSQSPLNARTGKNYLAWYQQKPGQPPKLLIYWASTRESGVPDRFSGSGSGTDFTLTISSLQAEDVAVYYCKQSYSRRTFGGGTKVEIK
notes: IgG; also called Ab27
B10 displayed a koff of 0.0199 s⁻¹.

B11: SAD10319_P04_C12 (ADI-57341) (antibody, V domains shown)
VH: QVQLVQSGAEVKKPGASVKVSCKASGYTFTAYDMHWVRQAPGQRLERMGWIDPITGNTKYSQKFQGRVTITRDTSASTAYMELSSLRSEDTAVYYCAHDAYGHYFYDVWGQGTLVTVSS
VL: DIVMTQSPDSLAVSLGERATINCKSSQSLLNARTGKNYLAWYQQKPGQPPKLLIYWASTRESGVPDRFSGSGSGTDFTLTISSLQAEDVAVYYCKQSYSRRTFGGGTKVEIK
notes: IgG; also called Ab41
The molecule B11 displayed a koff of 0.0196 s⁻¹. The koff values of the last two molecules are within 1.5-fold of each other.

B12: SAD10319_P04_F11 (ADI-57339) (antibody, V domains shown)
VH: QVQLVQSGAEVKKPGASVKVSCKASGYTFTDYNMHWVRQAPGQRLQWMGWINPYTGYTKYSQKFQGRVTITRDTSASTAYMELSSLRSEDTAVYYCARDHYGHYFYDVWGQGTLVTVSS
VL: DIVMTQSPDSLAVSLGERATINCKSSQSLLNARTGKNYLAWYQQKPGQPPKLLIYWASTRESGVPDRFSGSGSGTDFTLTISSLQAEDVAVYYCKQSYSRRTFGGGTKVEIK
notes: IgG; also called Ab38
In the case of B12, the koff came to 0.00202 s⁻¹. This koff is about 9.7-fold lower than that of the molecule before.

B13: SAD10319_P04_C11 (ADI-57336) (antibody, V domains shown)
VH: QVQLVQSGAEVKKPGASVKVSCKASGYTFHSYEMHWVRQAPGQRLEWMGWINPSTGSTKYSQKFQGRVTITRDTSASTAYMELSSLRSEDTAVYYCARDAYGRYFYDHWGQGTLVTVSS
VL: DIVMTQSPDSLAVSLGERATINCKSSQSLLNARTGKNYLAWYQQKPGQPPKLLIYWASTRESGVPDRFSGSGSGTDFTLTISSLQAEDVAVYYCKQSYSRRTFGGGTKVEIK
notes: IgG; also called Ab34
In turn, B13 came in with a koff of 0.00317 s⁻¹.

B14: SAD10319_P04_E12 (ADI-48642) (antibody, V domains shown)
VH: QVQLVQSGAEVKKPGASVKVSCKASGYTFTSYPMHWVRQAPGQRLEWMGWIDAGTGLTTYSQKFQGRVTITRDTSASTAYMELSSLRSEDTAVYYCARDHYHRYFYDMWGQGTLVTVSS
VL: DIVMTQSPDSLAVSLGERATINCKSSQSLLNARTGKNYLAWYQQKPGQPPKLLIYWASTRESGVPDRFSGSGSGTDFTLTISSLQAEDVAVYYCKQSYSRRTFGGGTKVEIK
notes: IgG; also called Ab43
B14 showed a koff of 0.00307 s⁻¹.

B15: SAD10320_P01_G01 (ADI-57346) (antibody, V domains shown)
VH: QVQLVQSGAEVKKPGASVKVSCKASGFNIKDYYMHWVRQAPGQRLEWMGWIDLENANTIYDAKFQGRVTITRDTSASTAYMELSSLRSEDTAVYYCARDAYGHSFYDVWGQGTLVTVSS
VL: DIVMTQSPDSLAVSLGERATINCKSSQSLLNARTGKNYLAWYQQKPGQPPKLLIYWASTRESGVPDRFSGSGSGTDFTLTISSLQAEDVAVYYCKQSYHLRTFGGGTKVEIK
notes: IgG; also called Ab51
B15: the koff turned out to be 0.0144 s⁻¹.

B16: SAD10319_P04_D12 (ADI-57342) (antibody, V domains shown)
VH: QVQLVQSGAEVKKPGASVKVSCKASGYTFTSYAMHWVRQAPGQRLDWMGYINPDTGDTKYSQKFQGRVTITRDTSASTAYMELSSLRSEDTAVYYCARDAYHHYFYDVWGQGTLVTVSS
VL: DIVMTQSPDSLAVSLGERATINCKSSQSLLNARTGKNYLAWYQQKPGQPPKLLIYWASTRESGVPDRFSGSGSGTDFTLTISSLQAEDVAVYYCKQSYSRRTFGGGTKVEIK
notes: IgG; also called Ab42
B16 had a koff of 0.012 s⁻¹. This koff and that of the molecule before are within 1.5-fold of each other.

B17: SAD10320_P01_H01 (ADI-57347) (antibody, V domains shown)
VH: QVQLVQSGAEVKKPGASVKVSCKASGFNIKDYYMHWVRQAPGQRLDWMGWIDLENANTIYDAKFQGRVTITRDTSASTAYMELSSLRSEDTAVYYCARDAYGHNFYDVWGQGTLVTVSS
VL: DIVMTQSPDSLAVSLGERATINCKSSQSLLNARTGKNYLAWYQQKPGQPPKLLIYWASTRESGVPDRFSGSGSGTDFTLTISSLQAEDVAVYYCKQSYHKRTFGGGTKVEIK
notes: IgG; also called Ab52
Molecule B17 came in with a koff of 0.0207 s⁻¹.

B18: SAD10319_P04_E11 (ADI-57338) (antibody, V domains shown)
VH: QVQLVQSGAEVKKPGASVKVSCKASGYTFTDYNMHWVRQAPGQRLEWMGWINPYTGYTKYSQKFQGRVTITRDTSASTAYMELSSLRSEDTAVYYCARDHYGHYFYDVWGQGTLVTVSS
VL: DIVMTQSPDSLAVSLGERATINCKSSQSLLNARTGKNYLAWYQQKPGQPPKLLIYWASTRESGVPDRFSGSGSGTDFTLTISSLQAEDVAVYYCKQSYSRRTFGGGTKVEIK
notes: IgG; also called Ab37
In turn, B18 came in with an off-rate (koff) of 0.0239 s⁻¹.

B19: SAD10319_P04_B11 (ADI-57335) (antibody, V domains shown)
VH: QVQLVQSGAEVKKPGASVKVSCKASGYTFGSYDMHWVRQAPGQRLEWMGWIDAGTGATKYSQKFQGRVTITRDTSASTAYMELSSLRSEDTAVYYCARDAHGHYFYDVWGQGTLVTVSS
VL: DIVMTQSPDSLAVSLGERATINCKSSQSLLNARTGKNYLAWYQQKPGQPPKLLIYWASTRESGVPDRFSGSGSGTDFTLTISSLQAEDVAVYYCKQSYSRRTFGGGTKVEIK
notes: IgG; also called Ab33
In turn, B19 registered a koff of 0.00273 s⁻¹.

B20: SAD10319_P04_F12 (ADI-57343) (antibody, V domains shown)
VH: QVQLVQSGAEVKKPGASVKVSCKASGYTFNDYAMHWVRQAPGQRLDWMGWINPDTGNTNYSQKFQGRVTITRDTSASTAYMELSSLRSEDTAVYYCARDHYGRYFYDHWGQGTLVTVSS
VL: DIVMTQSPDSLAVSLGERATINCKSSQSLLNARTGKNYLAWYQQKPGQPPKLLIYWASTRESGVPDRFSGSGSGTDFTLTISSLQAEDVAVYYCKQSYSRRTFGGGTKVEIK
notes: IgG; also called Ab44
B20 registered a koff of 0.0162 s⁻¹. Compared with the last molecule, the koff is about 5.9-fold higher.
